The target in test [1] is MUC2-C, the C-terminal part of the human MUC2 mucin, fully glycosylated (human). Briefly: polyacrylamide gel electrophoresis, non-reduced against reduced; purified MUC2-C; band of around 300 kDa non-reduced, about 150 kDa after reduction.
Test [2] has the same target. Nature of the test: SEC-SAXS; 25 °C; 25 mM HEPES pH 7.4, 100 mM NaCl, 10 mM CaCl2; beamline BM29, ESRF.

From PMC10082768 come the findings set out here.

On to “MUC2-C, the C-terminal part of the human MUC2 mucin, fully glycosylated (domain or fragment)”, for which the stoichiometry N in test [1] and in test [2] was 2 in each case.
